Measurements as given in patent US20250236673A1 (Ablynx, published 2025).

Columns and labels:
human serum albumin [1] = target: T1, human serum albumin (human, UniProt P02768 25-609); test: SPR Biacore 8K+, HSA amine-coupled on C1 chip, ISVD analyte, 1:1 fit
T1 construct: Immobilised by amine coupling on a C1 chip; also called HSA

human serum albumin [2] = target: T1, human serum albumin; test: SPR on HSA (Example 2; method not restated, as Example 1)

T1 sequence (P02768 25-609 limits assumed): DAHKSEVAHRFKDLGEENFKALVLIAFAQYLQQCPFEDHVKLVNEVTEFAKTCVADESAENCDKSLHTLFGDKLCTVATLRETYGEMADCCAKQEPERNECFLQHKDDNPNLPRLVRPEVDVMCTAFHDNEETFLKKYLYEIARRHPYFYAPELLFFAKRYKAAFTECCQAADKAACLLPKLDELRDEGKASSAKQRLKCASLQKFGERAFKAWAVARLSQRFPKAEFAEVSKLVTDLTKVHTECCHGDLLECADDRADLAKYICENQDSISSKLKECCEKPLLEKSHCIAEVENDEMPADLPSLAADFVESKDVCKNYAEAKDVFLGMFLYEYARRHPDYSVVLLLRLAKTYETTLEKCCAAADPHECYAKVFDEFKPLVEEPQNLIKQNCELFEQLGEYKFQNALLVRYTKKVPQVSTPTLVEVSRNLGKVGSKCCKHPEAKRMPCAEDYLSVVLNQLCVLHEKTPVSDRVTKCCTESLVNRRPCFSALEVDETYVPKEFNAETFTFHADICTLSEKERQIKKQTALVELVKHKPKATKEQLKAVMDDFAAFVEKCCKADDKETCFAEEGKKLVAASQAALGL

Binder | Kd (human serum albumin [1]) | koff (human serum albumin [1]) | kon (human serum albumin [1]) | Kd (human serum albumin [2]) | koff (human serum albumin [2]) | kon (human serum albumin [2])
T028501816 (VHH, K75A vs precursor T028501805; also called HSA006A06(K75A, K83R)) VHH: EVQLVESGGGVVQPGGSLRLSCAASGFTFRSFGMSWVRQAPGKGPEWVSSISGSGSDTLYADSVKGRFTISRDNSANTLYLQMNSLRPEDTALYYCTIGGSLSRSSQGTLVTVSS | 1.31 nM | 0.00105 s⁻¹ | 799000 M⁻¹ s⁻¹ |  |  | 
T039400046 (VHH, Single lysine at the C-terminus; also called HIS6-ENLYFQS-5GS-HSA006A06(K43R, K64R, K75R, K83R)-K) VHH: EVQLVESGGGVVQPGGSLRLSCAASGFTFRSFGMSWVRQAPGRGPEWVSSISGSGSDTLYADSVRGRFTISRDNSRNTLYLQMNSLRPEDTALYYCTIGGSLSRSSQGTLVTVSS |  |  |  | 5.95 nM | 0.00224 s⁻¹ | 377000 M⁻¹ s⁻¹
T039400039 (VHH, Single lysine at 75; also called HIS6-ENLYFQS-5GS-HSA006A06(K43R, K64R, K83R)) VHH: EVQLVESGGGVVQPGGSLRLSCAASGFTFRSFGMSWVRQAPGRGPEWVSSISGSGSDTLYADSVRGRFTISRDNSKNTLYLQMNSLRPEDTALYYCTIGGSLSRSSQGTLVTVSS |  |  |  | 7.51 nM | 0.00226 s⁻¹ | 301000 M⁻¹ s⁻¹
T039400041 (VHH, Single lysine at 64; also called HIS6-ENLYFQS-5GS-HSA006A06(K43R, K75R, K83R)) VHH: EVQLVESGGGVVQPGGSLRLSCAASGFTFRSFGMSWVRQAPGRGPEWVSSISGSGSDTLYADSVKGRFTISRDNSRNTLYLQMNSLRPEDTALYYCTIGGSLSRSSQGTLVTVSS |  |  |  | 8.01 nM | 0.00232 s⁻¹ | 289000 M⁻¹ s⁻¹
T028501835 (VHH, K64A vs precursor T028501805; also called HSA006A06(K64A, K83R)) VHH: EVQLVESGGGVVQPGGSLRLSCAASGFTFRSFGMSWVRQAPGKGPEWVSSISGSGSDTLYADSVAGRFTISRDNSKNTLYLQMNSLRPEDTALYYCTIGGSLSRSSQGTLVTVSS | 2.06 nM | 0.00108 s⁻¹ | 524000 M⁻¹ s⁻¹ |  |  | 
T039400040 (VHH, No lysine; also called HIS6-ENLYFQS-5GS-HSA006A06(K43R, K64R, K75R, K83R)) VHH: EVQLVESGGGVVQPGGSLRLSCAASGFTFRSFGMSWVRQAPGRGPEWVSSISGSGSDTLYADSVRGRFTISRDNSRNTLYLQMNSLRPEDTALYYCTIGGSLSRSSQGTLVTVSS |  |  |  | 6.22 nM | 0.00231 s⁻¹ | 371000 M⁻¹ s⁻¹
T028501836 (VHH) VHH: EVQLVESGGGVVQPGGSLRLSCAASGFTFRSFGMSWVRQAPGKGPEWVSSISGSGSDTLYADSVKGRFTISRDNSHNTLYLQMNSLRPEDTALYYCTIGGSLSRSSQGTLVTVSS | 1.35 nM | 0.00114 s⁻¹ | 839000 M⁻¹ s⁻¹ |  |  | 
T039400042 (VHH, Single lysine at 73; also called HIS6-ENLYFQS-5GS-HSA006A06(K43R, K64R, N73K, K75R, K83R)) VHH: EVQLVESGGGVVQPGGSLRLSCAASGFTFRSFGMSWVRQAPGRGPEWVSSISGSGSDTLYADSVRGRFTISRDKSRNTLYLQMNSLRPEDTALYYCTIGGSLSRSSQGTLVTVSS |  |  |  | 89.6 nM | 0.0178 s⁻¹ | 198000 M⁻¹ s⁻¹
T028501833 (VHH, K43R vs precursor T028501805; also called HSA006A06(K43R, K83R)) VHH: EVQLVESGGGVVQPGGSLRLSCAASGFTFRSFGMSWVRQAPGRGPEWVSSISGSGSDTLYADSVKGRFTISRDNSKNTLYLQMNSLRPEDTALYYCTIGGSLSRSSQGTLVTVSS | 1.29 nM | 0.000906 s⁻¹ | 703000 M⁻¹ s⁻¹ |  |  | 
T039400043 (VHH, Single lysine at 43; also called HIS6-ENLYFQS-5GS-HSA006A06(K64R, K75R, K83R)) VHH: EVQLVESGGGVVQPGGSLRLSCAASGFTFRSFGMSWVRQAPGKGPEWVSSISGSGSDTLYADSVRGRFTISRDNSRNTLYLQMNSLRPEDTALYYCTIGGSLSRSSQGTLVTVSS |  |  |  | 6.42 nM | 0.00226 s⁻¹ | 353000 M⁻¹ s⁻¹
T028501834 (VHH, K64R vs precursor T028501805; also called HSA006A06(K64R, K83R)) VHH: EVQLVESGGGVVQPGGSLRLSCAASGFTFRSFGMSWVRQAPGKGPEWVSSISGSGSDTLYADSVRGRFTISRDNSKNTLYLQMNSLRPEDTALYYCTIGGSLSRSSQGTLVTVSS | 1.11 nM | 0.00112 s⁻¹ | 1.01e+06 M⁻¹ s⁻¹ |  |  | 
T039400044 (VHH, also called HIS6-ENLYFQS-5GS-HSA006A06(K43R, K64R, K75R, K83R, Q105K)) VHH: EVQLVESGGGVVQPGGSLRLSCAASGFTFRSFGMSWVRQAPGRGPEWVSSISGSGSDTLYADSVRGRFTISRDNSRNTLYLQMNSLRPEDTALYYCTIGGSLSRSSKGTLVTVSS |  |  |  | 6.42 nM | 0.00229 s⁻¹ | 357000 M⁻¹ s⁻¹
T039400045 (VHH, Single lysine at 45; also called HIS6-ENLYFQS-5GS-HSA006A06(K43R, P45K,K64R, K75R, K83R)) VHH: EVQLVESGGGVVQPGGSLRLSCAASGFTFRSFGMSWVRQAPGRGKEWVSSISGSGSDTLYADSVRGRFTISRDNSRNTLYLQMNSLRPEDTALYYCTIGGSLSRSSQGTLVTVSS |  |  |  | 8.59 nM | 0.00263 s⁻¹ | 306000 M⁻¹ s⁻¹
